According to patent US20230340429A1, “STEVIOL GLYCOSIDE HEXOSE TRANSFERASE AND GENE CODING FOR SAME” (SUNTORY HOLDINGS LIMITED, priority 2016, published 2023):

Experiments:
[1] = tested on: Saccharomyces cerevisiae strain YPH499; assay: Production of Reb.C from steviol in yeast coexpressing UGTs and AtRHM2; assay type: cell-based; conditions: yeast coexpressing UGT85C2, UGT74G1, UGT76G1 and AtRHM2; 0.5 μg or 2 μg of steviol per 1 ml; HPLC, LC-MS
Description: [Example 5] RebC synthesis by fermentative production using yeast Various steviol glycosides were produced from steviol in yeast. First, yeast that simultaneously expresses the 4 glycosylation enzyme genes UGT85C2 (SEQ ID NO: 7), UGT91D2 (SEQ ID NO: 3), UGT74G1 (SEQ ID NO: 9), and UGT76G1 (SEQ ID NO: 11) or the 4 genes UGT85C2, UGT91D2L #16, UGT74G1, and UGT76G1 from Stevia rebaudiana and the UDP-rhamnose synthase gene AtRHM2 (SEQ ID NO: 13) from Arabidopsis thaliana has been created.
The plasmids set forth in Table 1 were introduced into the Saccharomyces cerevisiae strain YPH499 (ura3-52 lys2-801^amber ade2-101^ochre trp1-Δ63 his3-Δ200 leu2-Δ1 a) as a host by the lithium acetate method. Those that grew on SC-Trp&Ura&His agar medium (6.7 g of Yeast nitrogen base without amino acids, 20 g of glucose, 1.3 g of amino acid mixture powder Trp&Ura&His, 20 g of Bacto agar, per 1 L) were selected as transformant strains.
First, 10 ml of SC-Trp&Ura&His liquid medium (SC-Trp&Ura&His agar medium without Bacto agar) was inoculated each transformant strain as a preculture and cultured with shaking at 30° C. for 1 day. […]
The obtained glycoside sample was analyzed with high performance liquid chromatography (HPLC). […]

[2] = in vitro rhamnosylation activity (RhaT) of Escherichia coli-expressed UGT protein with UDP-rhamnose; assay type: biochemical; conditions: recombinant protein, LC-MS
Experimental: (§1) The standard enzymatic reaction conditions are as follows. A reaction solution (2 mM UDP-glucose, 0.1 mM sugar receptor substrate, 100 mM potassium phosphate buffer (pH 7.5), 25 μl of purified enzyme solution) was prepared to 50 μl with distilled water and incubated at 30° C. for 1 hour to react. The LC-MS analysis of 5 μl of the enzymatic reaction solution was carried out under the following conditions.
(§2) • Column: Imtakt SM-C18 3.0 um 4.6 mm I.D.×250 mm • Mobile phase: A: MilliQ Water (+0.2% acetic acid), • B: Methanol • Gradient: 0 to 5 min (B conc 10% constant), 5 to 20 min (B conc 10%→70%), 20 to 25 min (B conc 70%→100%), 25 to 35 min (B conc 100% constant), 35 to 36 min (B conc 100%→10%), 45 min end of analysis • Flow rate: 0.4 mL/min • Column oven: 40° C.
(§3) Evaluation of Mutants 1 and 2 was then made using the protein expressed in Escherichia coli in the same manner as in Example 4. The glucosylation activity (GlcT) and the rhamnosylation activity (RhaT) were evaluated using UDP-glucose and UDP-rhamnose, respectively, as the sugar donor and using rubusoside as the substrate, which is a sugar receptor. Stevioside and dulcoside A were produced as the reaction products in the former and in the latter, respectively.

[3] = in vitro glucosylation activity (GlcT) of Escherichia coli-expressed UGT protein with UDP-glucose; assay type: biochemical; conditions: recombinant protein, 30° C. 1 hour, LC-MS
Experimental: as §1, §2, §3

B1: UGT91D2: known Stevia rebaudiana UDP sugar-dependent glycosyltransferase, amino acid sequence SEQ ID NO: 4 (protein, listed as Stevia rebaudiana)
chain: MYNVTYHQNSKAMATSDSIVDDRKQLHVATFPWLAFGHILPYLQLSKLIAEKGHKVSFLSTTRNIQRLSSHISPLINVVQLTLPRVQELPEDAEATTDVHPEDIPYLKKASDGLQPEVTRFLEQHSPDWIIYDYTHYWLPSIAASLGISRAHFSVTTPWAIAYMGPSADAMINGSDGRTTVEDLTTPPKWFPFPTKVCWRKHDLARLVPYKAPGISDGYRMGLVLKGSDCLLSKCYHEFGTQWLPLLETLHQVPVVPVGLLPPEIPGDEKDETWVSIKKWLDGKQKGSVVYVALGSEVLVSQTEVVELALGLELSGLPFVWAYRKPKGPAKSDSVELPDGFVERTRDRGLVWTSWAPQLRILSHESVCGFLTHCGSGSIVEGLMFGHPLIMLPIFGDQPLNARLLEDKQVGIEIPRNEEDGCLTKESVARSLRSVVVEKEGEIYKANARELSKIYNDTKVEKEYVSQFVDYLEKNARAVAIDHES
[1]
  amount of Reb.C produced: Reb.C was produced
[2]
  activity to rhamnosylate rubusoside to produce dulcoside A: production of dulcoside A
[3]
  activity to glucosylate rubusoside to produce stevioside: production of stevioside

B2: UGT91D2L #16: novel Stevia rebaudiana UGT highly homologous with UGT91D2, amino acid sequence SEQ ID NO: 2 (protein, listed as Stevia rebaudiana)
chain: MYNVTYHQNSKAMATSDSIVDDRKQLHVATFPWLAFGHILPFLQLSKLIAEKGHKVSFLSTTRNIQRLSSHISPLINVVQLTLPRVQELPEDAEATTDVHPEDIPYLKKASDGLQPEVTRFLEQHSPDWIIYDYTHYWLPSIAASLGISRAHFSVVTPWAIAYMGPSADAMINGSDGRTTVEDLTTPPKWFPFPTKVCWRKHDLARLVPYKAPGISDGYRMGLVLKGSDCLLFKCYHEFGTQWLPLLETLHQVPVVPVGLLPPEIPGDEKDETWVSIKKWLDGKQKGSVVYVALGSEALVSQTEVVELALGLELSGLPFVWAYRKPKGPAKSDSVELPDGFVERTRDRGLVWTSWAPQLRILSHESVCGFLTHCGSGSIVEGLMFGHPLIMLPLFGDQPLNARLLEDKQVGIEIPRNEEDGCLTKESVARSLRSVVVENEGEIYKANARELSKIYNDTKVEKEYVSQFVDFLEKNARAVAIDHES
[1]
  amount of Reb.C produced: higher than that in the strain A-5678 expressing UGT91D2
[2]
  activity to rhamnosylate rubusoside to produce dulcoside A: markedly higher than SrUGT91D2
[3]
  activity to glucosylate rubusoside to produce stevioside: weaker than SrUGT91D2
